Measurements published in patent US20190269666A1, “COMBINATION THERAPY WITH MERESTINIB AND ANTI-PD-L1 OR ANTI-PD-1 INHIBITORS FOR USE IN THE TREATMENT OF CANCER” (Eli Lilly and Company, priority 2016, published 2019).

What was measured:
Cyno PD-L1 = assay: Binding kinetics and affinity by surface plasmon resonance (Biacore); set-up: species or system cynomolgus monkey; settings: SPR, analysis at 37° C.
Description: (§1) The kinetics and equilibrium dissociation constant (KD) for human PD-L1 is determined for antibodies of the present invention using surface plasmon resonance (Biacore).
(§2) Immobilization of antibodies of the present invention as ligand on to sensor chip surface is performed at 25° C. Soluble human PD-L1-Fc fusion protein (and in some cases, cynomolgus monkey PD-L1-Fc fusion proteins) is injected as analyte at concentrations ranging from 0.0123 nM-9 nM. The analysis is performed at 37° C. The contact time for each sample is 180 seconds at 30 μL/minute. The dissociation time was 240-1500 seconds. The immobilized surface is regenerated for 18 seconds with 0.95 M NaCl/25 mM NaOH at 30 μL/minute, and then stabilized for 30 seconds. Binding kinetics are analyzed using the Biacore T200 Evaluation software (Version 3.0). Data are referenced to a blank flow cell, and the data are fit to a 1:1 binding model.

PD-L1 binding to PD-1 = PD-L1 binding to PD-1 (Homo sapiens, UniProt Q9NZQ7); assay: ELISA blocking of the interaction of PD-L1 with PD-1; settings: after 4 weeks at 4° C., 25° C. and 40° C.
PD-L1 binding to PD-1, sequence (Q9NZQ7 19-239 limits assumed): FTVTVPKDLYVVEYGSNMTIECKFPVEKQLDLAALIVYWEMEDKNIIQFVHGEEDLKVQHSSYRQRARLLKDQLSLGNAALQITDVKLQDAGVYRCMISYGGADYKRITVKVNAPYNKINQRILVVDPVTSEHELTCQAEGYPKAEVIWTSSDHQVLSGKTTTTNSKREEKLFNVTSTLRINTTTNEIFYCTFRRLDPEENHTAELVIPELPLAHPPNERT
Description: The ability for antibodies of the present invention to block PD-L1 binding to PD-1 can be measured in an ELISA assay. For the receptor-ligand blocking assay, varying amounts (of anti-PD-L1 antibody or control IgG are mixed with a fixed amount of biotinylated PD-L1-Fc fusion protein (100 ng/well) and incubated at room temperature for 1 hour. The mixture is transferred to 96-well plates pre-coated with PD-1-Fc (1 μg/ml) and then incubated at room temperature for an additional 1 hour. After washing, streptavidin HRP conjugate is added, and the absorbance at 450 nm is read. IC50 represents the antibody concentration required for 50% inhibition of PD-L1 binding to PD-1.

human PD-L1 [1] = biological target: T1, human PD-L1 (Homo sapiens, UniProt Q9NZQ7); assay: ELISA binding to recombinant PD-L1; set-up: purchased R&D Systems; settings: after 4 weeks at 4° C., 25° C. and 40° C.
Description: The ability for antibodies of the present invention to bind human PD-L1 can be measured with an ELISA assay. For the PD-L1 binding assay, a 96-well plate (NUNC®) is coated with human PD-L1-Fc (R&D Systems) overnight at 4° C. Wells are blocked for 2 hours with blocking buffer (PBS containing 5% nonfat dry milk). Wells are washed three times with PBS containing 0.1% TWEEN®-20. Anti-PD-L1 antibody or control IgG (100 μL) is then added and incubated at room temperature for 1 hour. After washing, the plate is incubated with 100 μL of goat anti-human IgG F(ab′)2-HRP conjugate (Jackson Immuno Research) at room temperature for 1 hour. The plates are washed and then incubated with 100 μL of 3,3′, 5,5′-tetra-methylbenzidine. The absorbance at 450 nm is read on a microplate reader. The half maximal effective concentration (EC50) is calculated using GraphPad Prism 6 software.
Target sequence in this assay (Q9NZQ7 with tags, fused parts or gaps limits assumed): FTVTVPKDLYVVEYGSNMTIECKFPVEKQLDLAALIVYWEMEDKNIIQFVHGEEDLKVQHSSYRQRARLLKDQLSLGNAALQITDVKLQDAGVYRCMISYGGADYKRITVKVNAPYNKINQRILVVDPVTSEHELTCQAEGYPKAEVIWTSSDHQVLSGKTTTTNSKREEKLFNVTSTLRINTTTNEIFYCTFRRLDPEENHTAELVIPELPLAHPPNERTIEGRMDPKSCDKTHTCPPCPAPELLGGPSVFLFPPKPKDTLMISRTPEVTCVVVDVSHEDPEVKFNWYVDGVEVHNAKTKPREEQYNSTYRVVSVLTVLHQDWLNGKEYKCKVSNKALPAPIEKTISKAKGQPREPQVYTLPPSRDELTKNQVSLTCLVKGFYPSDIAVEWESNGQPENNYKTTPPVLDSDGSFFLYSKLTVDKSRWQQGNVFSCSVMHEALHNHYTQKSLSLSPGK

human PD-L1 [2] = biological target: T1, human PD-L1; assay: Binding kinetics and affinity by surface plasmon resonance (Biacore); set-up: Soluble human PD-L1-Fc fusion protein; settings: SPR, analysis at 37° C.
Description: as §1, §2
Target sequence in this assay (Q9NZQ7 19-238 limits assumed): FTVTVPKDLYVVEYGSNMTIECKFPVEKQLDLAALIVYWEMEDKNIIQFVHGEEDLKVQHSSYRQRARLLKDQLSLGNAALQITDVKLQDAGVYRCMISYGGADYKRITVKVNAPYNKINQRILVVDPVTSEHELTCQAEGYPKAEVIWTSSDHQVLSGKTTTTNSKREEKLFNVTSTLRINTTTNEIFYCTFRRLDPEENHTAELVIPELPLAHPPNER

LY3300054: IgG1 variant antibody lacking Fc effector function, that binds human PD-L1; HC SEQ ID NO: 10, LC SEQ ID NO: 11
Koff (Cyno PD-L1): 0.000184 s⁻¹
Kon (Cyno PD-L1): 1.51e+06 M⁻¹ s⁻¹
blocking activities after storage (PD-L1 binding to PD-1): retains its blocking activities
binding activities after storage (human PD-L1 [1]): retains its binding activities
Koff (human PD-L1 [2]): 0.000114 s⁻¹
Kon (human PD-L1 [2]): 1.4e+06 M⁻¹ s⁻¹
